Measurements: the supplement of paper PMC10567573
± gives the standard deviation.

Assay: protein stability index of a GFP-peptide fusion (GPS, HEK-293T) (PSI 1-6); higher = more stable
Conditions: c terminus: a fixed tail appended
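Also: 24-mer peptide tiles fused after GFP, lentivirally expressed, FACS-sorted into six equal bins by GFP/DsRed ratio, decoded by Illumina sequencing, PSI is the read-weighted mean bin number.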

Sequence | protein stability index (treatment: DMSO) | protein stability index (treatment: MLN4924 1 uM, 8 h)
KEAKTKYPNYEFISDNSISWSAGL [FUT8] | 2.52 ± 0.25 | 2.95 ± 0.23
KEKEQENERKVAQLAEENERLKQE [DDIT3] | 5.52 ± 0.1 | 5.55 ± 0.15
KENPECPVLKRSSESMENINSGYE [KMT2E] | 5.13 ± 0.2 | 5.01 ± 0.23
KERKKREERERKRRKEEEVQQQKL [FAF2] | 5.09 ± 0.46 | 4.91 ± 0.31
KESLETPSNGRIDIKQLIAKKIKL [SOAT1] | 2.55 ± 0.14 | 2.94 ± 0.27
KFYPPDPAQLSEDITRYYLCLQLR [EPB41L3] | 2.49 ± 0.048 | 2.48 ± 0.87
KIKAIMALVAAILLLVIIILIVMK [VAMP4] | 2.47 ± 0.51 | 2.41 ± 0.8
KKAIKDLGISPSTCSFNPGVIVAN [GLT8D2] | 2.95 ± 0.11 | 2.87 ± 0.43
KKEESGRERKKNWGGQEDREPAGR [PBXIP1] | 5.16 ± 0.14 | 5.33 ± 0.26
KKKEGGALRAQRASSNVFSNFEQT [MYL5] | 4.42 ± 0.45 | 4.47 ± 0.15
KKLKKDDKKKELQELNELFKPVVA [ZC3H15] | 4.18 ± 0.48 | 4.15 ± 0.34
KKLRLVFKSLDKKNDGRIDAQEIM [SLC25A25] | 2.57 ± 0.23 | 2.87 ± 0.31
KLDTKYPYVCHAELNAIMNKNSTD [DCTD] | 3.52 ± 0.18 | 3.42 ± 0.11
KLNLCEDGPCHKRRASICCTQLGS [SCARA5] | 3.12 ± 0.2 | 3.3 ± 0.27
KLPATMPEPVYFHCAAVTPAGCMY [KLHDC10] | 2.27 ± 0.23 | 2.08 ± 0.19
KNGQGFALVYSITAQSTFNDLQDL [RAP1B] | 2.23 ± 0.42 | 2.17 ± 0.45
KNNLSFIETSALDSTNVEEAFKNI [RAB11B] | 4.33 ± 0.2 | 4.33 ± 0.3
KPKKKKEKKEKEKKKKDKEKEKEK [BRD3] | 5.26 ± 0.097 | 5.19 ± 0.14
KQNARFLTSMRRLSSIKRDTNSIA [STX11] | 3.12 ± 0.25 | 3.21 ± 0.2
KQNKTPLDKSTTGVSEILLKTQMK [FEM1B] | 4.36 ± 0.15 | 4.2 ± 0.2
KQYKAVVYSNTIQSIIAIIRAMGR [GNAI1] | 1.95 ± 0.32 | 2.21 ± 0.052
KREREKEDIALNKHRSRRKWCFWN [RHOBTB1] | 2.65 ± 0.29 | 3.07 ± 0.51

Sequence | protein stability index (treatment: DMSO) | protein stability index (treatment: MLN4924 1 uM, 8 h)
KRKRVDVEESEASSSVSISHSASA [LMNB1] | 5.29 ± 0.29 | 5.42 ± 0.17
KRSWTSAQNACSEHGATLAVIDSE [CD69] | 4.64 ± 0.076 | 4.67 ± 0.17
KSHFQNSREWSGKEKWWDGQRDRK [PBXIP1] | 3.67 ± 0.26 | 3.98 ± 0.31
KTIEDLRNKIIAATIENAQPILQI [KRT16] | 2.36 ± 0.25 | 2.33 ± 0.1
KTLRVWDLKDDGNMMKVLRGHQNW [WSB1] | 2.66 ± 0.4 | 2.4 ± 0.42
KTPLHQKHAAFVTPDQKYSMDNTP [MYBL2] | 4.14 ± 0.38 | 4.23 ± 0.2
KVEEEIVTLRQVLAAKERHCGELK [TPD52L2] | 3.95 ± 0.3 | 4.21 ± 0.14
KVKRSLRQARKKGRHLELANQKLS [CCDC3] | 4 ± 0.26 | 4.39 ± 0.45
KVPESLVRSLRGEEPVPRERDRDP [LURAP1L] | 5.28 ± 0.13 | 5.25 ± 0.33
KVTGYLISYSSMLGAVAGLALGPI [MFSD9] | 3.31 ± 0.48 | 2.96 ± 0.28
KVVSRAENLSVPVIGALLRFNQAI [LPCAT4] | 2.15 ± 0.54 | 2.18 ± 0.19
LAIQARKRRPKREKHPKKPEPQQK [SRPK2] | 4.32 ± 0.2 | 4.59 ± 0.25
LALKTPPRVLTLSERPLDFLDLER [MFF] | 2.96 ± 0.45 | 3.1 ± 0.21
LALPPGAEHWTKEHCGAVCFVKDN [WAS] | 3.35 ± 0.23 | 3.45 ± 0.59
LARVPKLDLKRQYDRVAQLDQLLH [CHGB] | 2.15 ± 0.063 | 2.48 ± 0.26
LASLGASEEAVQKLATCYFFTVEF [TPH1] | 2.98 ± 0.52 | 2.73 ± 0.66
LASYLEKVRQLERDNAELENLIRE [KRT33B] | 3.31 ± 0.5 | 3.34 ± 0.36
LATASYDTRVYIWDPHNGDILMEF [WSB1] | 2.85 ± 0.12 | 2.86 ± 0.26
LCRKCANDIFQAANPYWTSRGSSV [TRIM63] | 2.32 ± 0.36 | 2.58 ± 0.49
LDMEKRRCRQSLEDSESLRIKEVE [LRRC45] | 4.79 ± 0.2 | 4.67 ± 0.1
LDRDALKQSLVVAVQDHGQPPLSA [PCDHGA10] | 4.49 ± 0.19 | 4.678 ± 0.044
LDSCNSLTPKSTPVKTLPFSPSQF [MYBL2] | 3.34 ± 0.2 | 3.37 ± 0.42

Sequence | protein stability index (treatment: DMSO) | protein stability index (treatment: MLN4924 1 uM, 8 h)
LDVERWLKPAMTQAQDEVEQERRL [FCHSD1] | 4.98 ± 0.16 | 5.11 ± 0.19
LDVRARLECEINTYRSLLESEDCK [KRT33B] | 4.23 ± 0.16 | 4.38 ± 0.25
LEDLESELDDPGQPVSLRRRKREV [ZNF24] | 5.38 ± 0.09 | 5.49 ± 0.16
LEDLKDQIAQLEASLAAAKKQLAD [LMNB1] | 5.3 ± 0.12 | 5.21 ± 0.15
LEFDLLIFSFGQLPLALVTWVPMF [SOAT2] | 3.17 ± 0.49 | 3.02 ± 0.33
LFAGFLPRIIKAAPSCAIMISTYE [SLC25A39] | 2.8 ± 0.31 | 3.21 ± 0.75
LFQTHENREHLVMMEKILGPIPSH [CLK3] | 2.85 ± 0.3 | 3.1 ± 0.15
LGPESWQQIAMDPEEVKSLDSNGA [BCL2L13] | 5.16 ± 0.16 | 5.24 ± 0.21
LGPSGLQNHGQHLILSREASWAKP [LCOR] | 3.08 ± 0.19 | 3.18 ± 0.2
LGPSRDPDPLNICVFILLLVFIVV [RTP4] | 3.8 ± 0.48 | 2.77 ± 0.41
LGRELMLQLSEFLCEEFRNRNQRI [CPN1] | 2.31 ± 0.2 | 2.26 ± 0.26
LGVVYRSLSFEDELVYADDYIMDE [ESRRG] | 2.46 ± 0.04 | 2.67 ± 0.33
LICAISHTHRAHTVVPLDDATQEY [TRIM39] | 2.59 ± 0.19 | 2.51 ± 0.38
LIGDFSKGYLFHTVAGKHQDLKYI [CDC25A] | 2.02 ± 0.32 | 1.81 ± 0.43
LIKSGAHFDATNLHKQTASDLLDE [FEM1C] | 4.61 ± 0.36 | 4.53 ± 0.51
LITQQIIPVLYCMVFIAGILLNGV [P2RY14] | 3.37 ± 0.2 | 3.42 ± 0.44
LIWVVGPVLAVVFIICIVIAILLY [PTPRD] | 2.35 ± 0.21 | 2.15 ± 0.29
LKGVKQACCEFLESQLDPSNCLGI [KLHL12] | 2.66 ± 0.66 | 2.51 ± 0.29
LKKFLYNFDNPWNFQNIPKETELP [MIA2] | 3.061 ± 0.006 | 2.66 ± 0.41
LKTGNSSPGIGAVYLANQAKNQSD [RTP4] | 3.82 ± 0.14 | 3.97 ± 0.19
LLGEPLAGPELDEMLREVDLNGDG [CABP4] | 5.18 ± 0.21 | 5.36 ± 0.21
